Paper PMC12123718 (Respiratory Research, 2025)

Molecular target: recombinant human PKM2 (rhPKM2) (human, UniProt P14618 1-531)
Test: SPR

recombinant human PKM2 (rhPKM2), sequence (P14618 whole entry): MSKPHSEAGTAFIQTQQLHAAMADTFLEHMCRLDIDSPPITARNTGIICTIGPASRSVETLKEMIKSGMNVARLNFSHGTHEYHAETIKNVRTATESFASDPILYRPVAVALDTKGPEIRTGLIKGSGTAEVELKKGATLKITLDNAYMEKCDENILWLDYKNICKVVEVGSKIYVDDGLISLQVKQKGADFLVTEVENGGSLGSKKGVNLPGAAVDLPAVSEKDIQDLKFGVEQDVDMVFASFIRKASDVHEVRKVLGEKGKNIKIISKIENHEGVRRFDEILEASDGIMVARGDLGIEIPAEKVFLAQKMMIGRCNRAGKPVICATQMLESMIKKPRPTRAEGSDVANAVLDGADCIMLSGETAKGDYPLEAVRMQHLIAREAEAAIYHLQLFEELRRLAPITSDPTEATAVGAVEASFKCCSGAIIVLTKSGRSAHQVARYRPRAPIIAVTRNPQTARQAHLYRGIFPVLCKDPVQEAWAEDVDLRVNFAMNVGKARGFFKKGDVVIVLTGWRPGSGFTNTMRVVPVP

B1: recombinant hPFN2 (rhPFN2) (natural protein, human, UniProt P35080 1-140, looked up)
chain: MAGWQSYVDNLMCDGCCQEAAIVGYCDAKYVWAATAGGVFQSITPIEIDMIVGKDREGFFTNGLTLGAKKCSVIRDSLYVDGDCTMDIRTKSQGGEPTYNVAVGRAGRVLVFVMGKEGVHGGGLNKKAYSMAKYLRDSGF
B1 was tested. Which Kd did it give?
Its Kd is 50.6 nM.
